Results from the supplement of paper PMC9732359.
± gives the uncertainty stated by the source.

Assay: protein stability index of a GFP-peptide fusion (yeast GPS) (PSI 1-4); higher = more stable; sorted into four equal gates, so the index is relative within each strain
Procedure, shortened: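 The protein stability index combines read frequencies across sorting gates, each weighted by its gate number and then summed. To obtain those frequencies, a pooled yeast library of GFP fusions to tiled 17-residue yeast protein peptides, on a plasmid also expressing Cherry, was grown to mid-log phase in leucine-free medium. The cells were sorted into four equal gates by GFP/Cherry ratio before plasmid amplification by PCR and Illumina sequencing.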

## MVKLIVMLCTLTGYQNN [YJL039C/NUP192]
doa10∆
  protein stability index: 1.9 ± 0.12
pdr5∆
  protein stability index: 1.52 ± 0.075
san1∆
  protein stability index: 1.99 ± 0.11
ubr1∆
  protein stability index: 1.5 ± 0.095

## VLRLNAIPLLKVLRKFR [NUT1]
doa10∆
  protein stability index: 1.98 ± 0.052
pdr5∆
  protein stability index: 2.21 ± 0.054
san1∆
  protein stability index: 2.06 ± 0.084
ubr1∆
  protein stability index: 2.3 ± 0.038

## SKKYQLADWRIRPLSKP [RRP6]
doa10∆
  protein stability index: 1.68 ± 0.048
pdr5∆
  protein stability index: 1.83 ± 0.048
san1∆
  protein stability index: 1.3 ± 0.088
ubr1∆
  protein stability index: 1.99 ± 0.049

## TPQSKGFVRNSFFSGLS [RPO31]
doa10∆
  protein stability index: 3.01 ± 0.089
pdr5∆
  protein stability index: 2.79 ± 0.074
san1∆
  protein stability index: 3.13 ± 0.089
ubr1∆
  protein stability index: 2.86 ± 0.046

## LTVYLEPGHAADQEQAK [RPO21]
doa10∆
  protein stability index: 2.96 ± 0.14
pdr5∆
  protein stability index: 2.68 ± 0.1
san1∆
  protein stability index: 3.05 ± 0.081
ubr1∆
  protein stability index: 3.13 ± 0.083

## QGISGSQQNIVPNSSDQ [SNF2]
doa10∆
  protein stability index: 2.92 ± 0.05
pdr5∆
  protein stability index: 3.11 ± 0.06
san1∆
  protein stability index: 3.16 ± 0.041
ubr1∆
  protein stability index: 2.95 ± 0.053

## SLGDGTNYYLTTARNDL [CSL4]
doa10∆
  protein stability index: 2.66 ± 0.068
pdr5∆
  protein stability index: 2.71 ± 0.068
san1∆
  protein stability index: 2.83 ± 0.049
ubr1∆
  protein stability index: 2.91 ± 0.1

## RVRHEDVETVKREIQEA [RPC53]
pdr5∆
  protein stability index: 3 ± 0.17

## MLHKVLENKADPLVSLM [RPT6]
doa10∆
  protein stability index: 2.28 ± 0.08
pdr5∆
  protein stability index: 2.15 ± 0.063
san1∆
  protein stability index: 2.71 ± 0.058
ubr1∆
  protein stability index: 2.23 ± 0.066

## HWSVSFQAHEITSFLLS [NAS6]
doa10∆
  protein stability index: 2.28 ± 0.056
pdr5∆
  protein stability index: 1.92 ± 0.051
san1∆
  protein stability index: 1.76 ± 0.08
ubr1∆
  protein stability index: 2.02 ± 0.04

## ISGDISDMQHIERLLKD [PRE4]
doa10∆
  protein stability index: 2.99 ± 0.14
pdr5∆
  protein stability index: 3.1 ± 0.11
san1∆
  protein stability index: 3.13 ± 0.14
ubr1∆
  protein stability index: 2.99 ± 0.1

## IKTKQMSLKKCQEEVST [SMC2]
doa10∆
  protein stability index: 2.48 ± 0.098
pdr5∆
  protein stability index: 3.02 ± 0.095
san1∆
  protein stability index: 3.03 ± 0.088
ubr1∆
  protein stability index: 3.27 ± 0.059

## SAVVSSNASRRKLINYT [RPN4]
doa10∆
  protein stability index: 2.77 ± 0.11
pdr5∆
  protein stability index: 2.53 ± 0.14
san1∆
  protein stability index: 2.55 ± 0.069
ubr1∆
  protein stability index: 3.26 ± 0.14

## PQKNLLLKGPASTVAKT [YOR098C/NUP1]
doa10∆
  protein stability index: 2.73 ± 0.057
pdr5∆
  protein stability index: 2.94 ± 0.041
san1∆
  protein stability index: 2.68 ± 0.054
ubr1∆
  protein stability index: 2.83 ± 0.055

## NVESAGAMTPEEIFFKS [RPC40]
doa10∆
  protein stability index: 3.04 ± 0.074
pdr5∆
  protein stability index: 3.31 ± 0.085
san1∆
  protein stability index: 3.17 ± 0.054
ubr1∆
  protein stability index: 3.27 ± 0.045

## AVLNVSPVYDVDPRIIN [NUT1]
doa10∆
  protein stability index: 2.2 ± 0.078
pdr5∆
  protein stability index: 2.29 ± 0.064
san1∆
  protein stability index: 1.82 ± 0.091
ubr1∆
  protein stability index: 2.17 ± 0.06

## EDEGEERESSGAKDAEK [RPC17]
doa10∆
  protein stability index: 2.93 ± 0.18
pdr5∆
  protein stability index: 3.38 ± 0.28
ubr1∆
  protein stability index: 3.65 ± 0.16

## SGDRLTRASKVLEQLSG [RPL11A]
pdr5∆
  protein stability index: 3.12 ± 0.13
san1∆
  protein stability index: 2.43 ± 0.27
ubr1∆
  protein stability index: 2.92 ± 0.13

## RLVIKEALVERRRAFKR [RPB4]
doa10∆
  protein stability index: 3.13 ± 0.29
pdr5∆
  protein stability index: 2.67 ± 0.14
san1∆
  protein stability index: 2.8 ± 0.22

## IGIDPPRGVLLYGPPGT [RPT3]
doa10∆
  protein stability index: 3.04 ± 0.088
pdr5∆
  protein stability index: 2.58 ± 0.1
san1∆
  protein stability index: 2.89 ± 0.081
ubr1∆
  protein stability index: 2.74 ± 0.073

## VALTSFLGYKAGMTTIV [RPL3]
doa10∆
  protein stability index: 2.96 ± 0.11
pdr5∆
  protein stability index: 2.75 ± 0.077
san1∆
  protein stability index: 2.69 ± 0.078
ubr1∆
  protein stability index: 2.85 ± 0.094

## LVALLSRDLWCFSINDD [SSN2]
doa10∆
  protein stability index: 2.1 ± 0.076
pdr5∆
  protein stability index: 1.71 ± 0.08
san1∆
  protein stability index: 2.5 ± 0.098
ubr1∆
  protein stability index: 2.69 ± 0.098

## SGEEKGKKVSGFKDEVL [RPS1B]
doa10∆
  protein stability index: 3.4 ± 0.11
pdr5∆
  protein stability index: 3.61 ± 0.14
san1∆
  protein stability index: 3.48 ± 0.11
ubr1∆
  protein stability index: 3.46 ± 0.083

## IGQLMAFDKHMNLVLNE [SMB1]
doa10∆
  protein stability index: 2.04 ± 0.15
pdr5∆
  protein stability index: 2.39 ± 0.2
san1∆
  protein stability index: 2.72 ± 0.16
ubr1∆
  protein stability index: 2.57 ± 0.051

## NISFYKLHVNWNLNATK [SIN4]
doa10∆
  protein stability index: 2.43 ± 0.072
pdr5∆
  protein stability index: 2.23 ± 0.077
san1∆
  protein stability index: 2.18 ± 0.16
ubr1∆
  protein stability index: 1.48 ± 0.081

## SHFSPDIKAAVDDSMEL [ITC1]
doa10∆
  protein stability index: 2.27 ± 0.096
pdr5∆
  protein stability index: 2.44 ± 0.12
san1∆
  protein stability index: 1.9 ± 0.15
ubr1∆
  protein stability index: 2.48 ± 0.079

## FAESPFFDKTSNNQVIK [MED6]
doa10∆
  protein stability index: 3.49 ± 0.081
pdr5∆
  protein stability index: 2.92 ± 0.096
san1∆
  protein stability index: 2.71 ± 0.076
ubr1∆
  protein stability index: 2.96 ± 0.069

## KLYVDAVHSIIALSRRF [YDL116W/NUP84]
doa10∆
  protein stability index: 2.01 ± 0.077
pdr5∆
  protein stability index: 1.81 ± 0.065
san1∆
  protein stability index: 1.82 ± 0.12
ubr1∆
  protein stability index: 1.93 ± 0.064

## IVSKSIEMYVQEASKQY [RPN2]
doa10∆
  protein stability index: 2.53 ± 0.087
pdr5∆
  protein stability index: 2.98 ± 0.1
san1∆
  protein stability index: 1.54 ± 0.088
ubr1∆
  protein stability index: 2.68 ± 0.1

## VKRIQSVPLVIGQFLEP [RPT3]
doa10∆
  protein stability index: 1.58 ± 0.064
pdr5∆
  protein stability index: 1.6 ± 0.063
san1∆
  protein stability index: 2.38 ± 0.11
ubr1∆
  protein stability index: 3 ± 0.094

## FYERLDKSTTQLRKEIQ [MED11]
doa10∆
  protein stability index: 2.61 ± 0.063
pdr5∆
  protein stability index: 2.82 ± 0.081
san1∆
  protein stability index: 2.47 ± 0.064
ubr1∆
  protein stability index: 2.9 ± 0.072

## MMTGAEQDPYSNASQMG [RPB3]
doa10∆
  protein stability index: 2.68 ± 0.14
pdr5∆
  protein stability index: 2.44 ± 0.13
san1∆
  protein stability index: 2.21 ± 0.2
ubr1∆
  protein stability index: 2.92 ± 0.1

## SGFYTFSLLDHHYRPDM [PRE1]
pdr5∆
  protein stability index: 3.1 ± 0.28
san1∆
  protein stability index: 2.99 ± 0.13

## LQDLSRYSRQFINNVLS [GRR1]
doa10∆
  protein stability index: 2.78 ± 0.059
pdr5∆
  protein stability index: 2.29 ± 0.049
san1∆
  protein stability index: 2.56 ± 0.049
ubr1∆
  protein stability index: 2.74 ± 0.051

## EEFRNLAALNVWYGLSD [SSN2]
doa10∆
  protein stability index: 3.37 ± 0.14
pdr5∆
  protein stability index: 2.8 ± 0.13
san1∆
  protein stability index: 2.39 ± 0.12
ubr1∆
  protein stability index: 2.94 ± 0.074

## AIFNNEFDSDDDDISDD [RPN4]
doa10∆
  protein stability index: 3.12 ± 0.1
pdr5∆
  protein stability index: 2.16 ± 0.19
ubr1∆
  protein stability index: 3.19 ± 0.21

## SLNPALQEKISTELNNK [SWI1]
doa10∆
  protein stability index: 2.8 ± 0.11
pdr5∆
  protein stability index: 3.05 ± 0.097
san1∆
  protein stability index: 3.29 ± 0.069
ubr1∆
  protein stability index: 3.27 ± 0.083

## ESLKKELQIFKTANSSS [YIL149C/MLP2]
doa10∆
  protein stability index: 2.78 ± 0.065
pdr5∆
  protein stability index: 2.93 ± 0.049
san1∆
  protein stability index: 2.9 ± 0.059
ubr1∆
  protein stability index: 2.61 ± 0.042

## KKRAPRAVKEIKKFAKL [RPL31A]
pdr5∆
  protein stability index: 3.15 ± 0.21
san1∆
  protein stability index: 2.86 ± 0.16

## THAVGNNCEDFVSRPDR [FAS1]
doa10∆
  protein stability index: 3.16 ± 0.12
pdr5∆
  protein stability index: 3.08 ± 0.18
san1∆
  protein stability index: 2.97 ± 0.072
ubr1∆
  protein stability index: 3.04 ± 0.087

## KAAGLTAAYARTIGIAV [RPL13A]
doa10∆
  protein stability index: 1.56 ± 0.077
pdr5∆
  protein stability index: 1.46 ± 0.059
san1∆
  protein stability index: 1.22 ± 0.11
ubr1∆
  protein stability index: 1.38 ± 0.089

## AMNDACYEKVLESINEG [BRR2]
doa10∆
  protein stability index: 3.15 ± 0.12
pdr5∆
  protein stability index: 2.82 ± 0.17
san1∆
  protein stability index: 2.91 ± 0.095
ubr1∆
  protein stability index: 3.37 ± 0.2

## VEEIKLQKEKELHKEGT [SMC2]
pdr5∆
  protein stability index: 3.03 ± 0.12
san1∆
  protein stability index: 2.81 ± 0.095
ubr1∆
  protein stability index: 2.97 ± 0.096

## DTLKENATEVQKESDAK [ITC1]
doa10∆
  protein stability index: 2.87 ± 0.11
pdr5∆
  protein stability index: 2.94 ± 0.12
san1∆
  protein stability index: 2.85 ± 0.086
ubr1∆
  protein stability index: 3.16 ± 0.26

## FSMLQMAFEASAAAAGN [BRR2]
pdr5∆
  protein stability index: 2.26 ± 0.25
san1∆
  protein stability index: 1.76 ± 0.21

## KGSRKSSKAATPDTKNF [SNF12]
doa10∆
  protein stability index: 3 ± 0.063
pdr5∆
  protein stability index: 2.87 ± 0.052
san1∆
  protein stability index: 3 ± 0.058
ubr1∆
  protein stability index: 2.98 ± 0.042

## PFDKKSNSALFRAVGEG [FAS1]
doa10∆
  protein stability index: 2.92 ± 0.074
pdr5∆
  protein stability index: 2.92 ± 0.082
san1∆
  protein stability index: 2.85 ± 0.052
ubr1∆
  protein stability index: 2.91 ± 0.063

## LLHHVSELDSNDFFIIY [YJL039C/NUP192]
doa10∆
  protein stability index: 1.7 ± 0.088
pdr5∆
  protein stability index: 1.74 ± 0.088
san1∆
  protein stability index: 1.61 ± 0.14
ubr1∆
  protein stability index: 2.02 ± 0.078

## AIATTVIAHLTVEALDF [RET1]
doa10∆
  protein stability index: 2.54 ± 0.12
pdr5∆
  protein stability index: 2.32 ± 0.083
san1∆
  protein stability index: 2.71 ± 0.076
ubr1∆
  protein stability index: 2.37 ± 0.053

## QLYKARMSIKLLRLASK [POP1]
doa10∆
  protein stability index: 1.54 ± 0.064
pdr5∆
  protein stability index: 1.39 ± 0.072
san1∆
  protein stability index: 1.4 ± 0.11
ubr1∆
  protein stability index: 1.14 ± 0.048

## ISSHSHPVSLISFAIYS [RRP42]
doa10∆
  protein stability index: 1.51 ± 0.052
pdr5∆
  protein stability index: 1.62 ± 0.058
san1∆
  protein stability index: 1.86 ± 0.075
ubr1∆
  protein stability index: 1.54 ± 0.033

## VRRRFARGMTSKPAGFM [RPS15]
doa10∆
  protein stability index: 2.9 ± 0.071
pdr5∆
  protein stability index: 2.89 ± 0.077
san1∆
  protein stability index: 2.94 ± 0.1
ubr1∆
  protein stability index: 3.07 ± 0.075

## DRVFNVPTIGVVNSNFA [YJR042W/NUP85]
doa10∆
  protein stability index: 2.57 ± 0.08
pdr5∆
  protein stability index: 2.7 ± 0.085
san1∆
  protein stability index: 2.48 ± 0.086
ubr1∆
  protein stability index: 2.5 ± 0.036
